Test results published in patent US5756340A, “Insect control with multiple toxins” (The Regents of the University of California, priority 1995, dated 1998).

What was measured:
Format in all cases: in vivo
[1] = test system: Sarcophaga falculata larvae; test: Paralysis (PU50) of blow fly larvae after toxin injection; details: single toxin injected; contraction paralysis immediately, or flaccid/delayed paralysis 5 minutes after injection
Description: (§1) The activities of four different insect toxins towards two different insects and towards mice were determined (since one prefers to use insect toxins that have little or no effect on mammals). These were purified by established methods from the respective crude venoms. Their toxicity towards mice and larvae of blow fly and lepidoptera was determined according to the method of Reed and Muench (1938).
(§2) The PU50 values of the toxins to blow fly larvae were in accordance with previously published results (Zlotkin et al., Biochim, 53, 1075-1078 (1971); and Eitan et al., Biochem., 29, 5941-5947 (1990)). […]
one of the toxins and the PU50 were determined. The PU50 of
excitatory toxins AaIT, LqhVI, and LqhIT3 was determined as a
contraction paralysis immediately after injection. The PU50 of the
depressant toxin LqhIT2 was determined as a flaccid paralysis 5
after injection. The PU50 of the α insect toxins LqhαIT

[2] = test system: Heliothis virescens larvae; test: Paralysis (PU50) of lepidopterous larvae after toxin injection; details: single toxin injected; inability to move or turn when inverted, 24 hours after injection
Description: as §1, §2
each one of the toxins and the PU50 was determined as inability to
or turn when inverted on its back 24 hours after injection. […]

[3] = test system: Swiss Webster mice; test: LD50 to mice, subcutaneous injection; details: for toxicity towards mice / mammals (in words): Swiss Webster mice; for LD50 to Swiss Webster mice: single toxin, subcutaneous, 24 hours after injection
Description: as §1
The PU50 values of the toxins to blow fly larvae were in accordance with previously published results (Zlotkin et al., Biochim, 53, 1075-1078 (1971); and Eitan et al., Biochem., 29, 5941-5947 (1990)).
(§3) ^c Two replicates of eight mice were injected subcutaneously and the
to mice was determined 24 hours after injection.
as §3
LD50 to mice was determined 24 hours after injection.

Row | Molecule | PU50 to Sarcophaga falculata larvae [1] | PU50 to Heliothis virescens larvae [2] | toxicity towards mice / mammals (in words) [3] | LD50 to Swiss Webster mice [3]
1 | LqhαIT: α insect toxin from yellow scorpion Leuirus quinquestriatus hebraeus | 0.0025 μg/100 mg b.w. | 2.5 μg/100 mg b.w. | higher toxicity | 8.0 μg/20 g b.w.
2 | AaIT: excitatory insect-selective scorpion toxin from Androctonus australis (protein, UniProt P01497 19-88, looked up) Beta-insect excitatory toxin 1: KKNGYAVDSSGKAPECLLSNYCNNECTKVHYADKGYCCLLSCYCFGLNDDKKVLEISDTRKSYCDTTIIN | 0.0025 μg/100 mg b.w. | 2.5 μg/100 mg b.w. | – | > 60 μg/20 g b.w.
3 | LqhVI (protein) GVRDGYIAQPENCVYHCFPGSPGCDTLCKGDGASSGHCGFKEGHGLACWCNDLPDKVGIIVEGEKCH | 0.006 μg/100 mg b.w. | 3.0 μg/100 mg b.w. | weak mammal toxicity | > 60 μg/20 g b.w.
4 | LqhIV (protein) peptide: GVRDAYIADDKNCVYTCGANSYCNTECTKNGAESGYCQWFGKYGNACWCIKLPDKVPIRIPGKCR | 0.1 μg/100 mg b.w. | 0.5 μg/100 mg b.w. | no or weak mammal toxicity | 12 μg/20 g b.w.
